Test results: paper PMC5402393, “Interactions of AMTN, ODAM and SCPPPQ1 proteins of a specialized basal lamina that attaches epithelial cells to tooth mineral” (Scientific Reports, 2017)

B1: recombinant human ODAM, purified, His-tag cleaved (natural protein, UniProt A1E959 16-279, looked up)
chain: APLIPQRLMSASNSNELLLNLNNGQLLPLQLQGPLNSWIPPFSGILQQQQQAQIPGLSQFSLSALDQFAGLLPNQIPLTGEASFAQGAQAGQVDPLQLQTPPQTQPGPSHVMPYVFSFKMPQEQGQMFQYYPVYMVLPWEQPQQTVPRSPQQTRQQQYEEQIPFYAQFGYIPQLAEPAISGGQQQLAFDPQLGTAPEIAVMSTGEEIPYLQKEAINFRHDSAGVFMPSTSPKPSTTNVFTSAVDQTITPELPEEKDKTDSLREP
notes: ~32 kDa; also called hODAM; source: E. coli BL21(DE3)-star, purified (Ni-NTA, TEV cleavage, Superose 6 gel filtration); not shown: His6, N-terminal, cleaved

Columns and labels:
[1] = target: the molecule itself; experiment: SEC; Superose 6 GL 10/300 for ODAM, S200 for AMTN; 50 mM PB pH 7.4; purified recombinant human proteins, His-tag cleaved; self-association
[2] = target: B1; experiment: circular dichroism; far-UV CD (180-250 nm) of purified hODAM, hAMTN and their mixture in 50 mM PB pH 7.2; change of secondary structure on mixing; conditions: both partners purified

| binding result [2] | Binder | stoichiometry N [1] |
| --- | --- | --- |
| – | B1 | 12 to 13 subunits |
| binds | recombinant human AMTN, purified, His-tag cleaved (natural protein, UniProt Q6UX39 17-209, looked up, ~21 kDa; also called hAMTN; source: E. coli BL21(DE3)-star, purified (Ni-NTA, TEV cleavage, S200 gel filtration); not shown: His6, N-terminal, cleaved) LPQLKPALGLPPTKLAPDQGTLPNQQQSNQVFPSLSLIPLTQMLTLGPDLHLLNPAAGMTPGTQTHPLTLGGLNVQQQLHPHVLPIFVTQLGAQGTILSSEELPQIFTSLIIHSLFPGGILPTSQAGANPDVQDGSLPAGGAGVNPATQGTPAGRLPTPSGTDDDFAVTTPAGIQRSTHAIEEATTESANGIQ | 5 subunits |
